Starred links: 1 amine or outer side, 2 acyl side, 3 side chain; linkers in the order of their positions; H or OH if unused. Non-standard residues stand in square brackets, D forms with d. Groups on a side chain read outwards from the residue. No end group written: not given here. *: point of attachment. 2OEGgE = O=C(CC[C@H](N[*:1])C(=O)O)NCCOCCOCC(=O)NCCOCCOCC(=O)[*:2]; C16 diacid = O=C(O)CCCCCCCCCCCCCCC(=O)*; C15 diacid = O=C(O)CCCCCCCCCCCCCC(=O)*; γGlu = O=C(O)[C@H](CCC(=O)[*:2])N[*:1]; NMeY = CN[C@@H](Cc1ccc(O)cc1)C(=O)O; AEEA = NCCOCCOCC(=O)O; Aib = CC(C)(N)C(=O)O
T1: full-length human GIPR with an N-terminal FLAG tag (human, UniProt P48546 22-466)
T1 sequence (looked up): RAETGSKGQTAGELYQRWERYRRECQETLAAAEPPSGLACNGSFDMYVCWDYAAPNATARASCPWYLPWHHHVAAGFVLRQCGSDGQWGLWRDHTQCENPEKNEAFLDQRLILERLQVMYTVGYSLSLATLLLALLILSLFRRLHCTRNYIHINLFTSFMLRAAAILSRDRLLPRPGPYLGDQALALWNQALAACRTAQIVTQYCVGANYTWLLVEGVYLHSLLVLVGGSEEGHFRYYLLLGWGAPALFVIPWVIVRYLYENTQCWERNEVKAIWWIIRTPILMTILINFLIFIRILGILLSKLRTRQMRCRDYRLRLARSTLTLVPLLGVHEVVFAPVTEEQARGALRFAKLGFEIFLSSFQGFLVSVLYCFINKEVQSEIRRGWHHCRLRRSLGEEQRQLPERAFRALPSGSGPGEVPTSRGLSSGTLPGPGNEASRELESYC

B1: Compound 76 (peptide)
peptide: [NMeY][Aib]EGTFISDYSIALDR[Aib]K([AEEA-AEEA-γGlu-C15 diacid])Q[Aib]DFVNWLLAQSPSSGAPPPS-NH2
modifications: N-terminus assumed
SMILES: CC[C@H](C)[C@H](NC(=O)[C@H](CO)NC(=O)[C@H](Cc1ccc(O)cc1)NC(=O)[C@H](CC(=O)O)NC(=O)[C@H](CO)NC(=O)[C@@H](NC(=O)[C@H](Cc1ccccc1)NC(=O)[C@@H](NC(=O)CNC(=O)[C@H](CCC(=O)O)NC(=O)C(C)(C)NC(=O)[C@H](Cc1ccc(O)cc1)NC)[C@@H](C)O)[C@@H](C)CC)C(=O)N[C@@H](C)C(=O)N[C@@H](CC(C)C)C(=O)N[C@@H](CC(=O)O)C(=O)N[C@@H](CCCNC(=N)N)C(=O)NC(C)(C)C(=O)N[C@@H](CCCCNC(=O)COCCOCCNC(=O)COCCOCCNC(=O)CC[C@H](NC(=O)CCCCCCCCCCCCCC(=O)O)C(=O)O)C(=O)N[C@@H](CCC(N)=O)C(=O)NC(C)(C)C(=O)N[C@@H](CC(=O)O)C(=O)N[C@@H](Cc1ccccc1)C(=O)N[C@H](C(=O)N[C@@H](CC(N)=O)C(=O)N[C@@H](Cc1c[nH]c2ccccc12)C(=O)N[C@@H](CC(C)C)C(=O)N[C@@H](CC(C)C)C(=O)N[C@@H](C)C(=O)N[C@@H](CCC(N)=O)C(=O)N[C@@H](CO)C(=O)N1CCC[C@H]1C(=O)N[C@@H](CO)C(=O)N[C@@H](CO)C(=O)NCC(=O)N[C@@H](C)C(=O)N1CCC[C@H]1C(=O)N1CCC[C@H]1C(=O)N1CCC[C@H]1C(=O)N[C@@H](CO)C(N)=O)C(C)C
B2: Compound 88 (peptide)
peptide: [NMeY][Aib]EGTFISDYSIALDR[Aib]AQ[Aib]NFVNWLLAK([AEEA-AEEA-γGlu-γGlu-C15 diacid])RPSSGAPPPS-NH2
modifications: N-terminus assumed
SMILES: CC[C@H](C)[C@H](NC(=O)[C@H](CO)NC(=O)[C@H](Cc1ccc(O)cc1)NC(=O)[C@H](CC(=O)O)NC(=O)[C@H](CO)NC(=O)[C@@H](NC(=O)[C@H](Cc1ccccc1)NC(=O)[C@@H](NC(=O)CNC(=O)[C@H](CCC(=O)O)NC(=O)C(C)(C)NC(=O)[C@H](Cc1ccc(O)cc1)NC)[C@@H](C)O)[C@@H](C)CC)C(=O)N[C@@H](C)C(=O)N[C@@H](CC(C)C)C(=O)N[C@@H](CC(=O)O)C(=O)N[C@@H](CCCNC(=N)N)C(=O)NC(C)(C)C(=O)N[C@@H](C)C(=O)N[C@@H](CCC(N)=O)C(=O)NC(C)(C)C(=O)N[C@@H](CC(N)=O)C(=O)N[C@@H](Cc1ccccc1)C(=O)N[C@H](C(=O)N[C@@H](CC(N)=O)C(=O)N[C@@H](Cc1c[nH]c2ccccc12)C(=O)N[C@@H](CC(C)C)C(=O)N[C@@H](CC(C)C)C(=O)N[C@@H](C)C(=O)N[C@@H](CCCCNC(=O)COCCOCCNC(=O)COCCOCCNC(=O)CC[C@H](NC(=O)CC[C@H](NC(=O)CCCCCCCCCCCCCC(=O)O)C(=O)O)C(=O)O)C(=O)N[C@@H](CCCNC(=N)N)C(=O)N1CCC[C@H]1C(=O)N[C@@H](CO)C(=O)N[C@@H](CO)C(=O)NCC(=O)N[C@@H](C)C(=O)N1CCC[C@H]1C(=O)N1CCC[C@H]1C(=O)N1CCC[C@H]1C(=O)N[C@@H](CO)C(N)=O)C(C)C
B3: Compound 75 (peptide)
peptide: [NMeY][Aib]EGTFISDYSIALDR[Aib]K([2OEGgE-C15 diacid])Q[Aib]DFVNWLLAQRPSSGAPPPS-NH2
modifications: N-terminus assumed
SMILES: CC[C@H](C)[C@H](NC(=O)[C@H](CO)NC(=O)[C@H](Cc1ccc(O)cc1)NC(=O)[C@H](CC(=O)O)NC(=O)[C@H](CO)NC(=O)[C@@H](NC(=O)[C@H](Cc1ccccc1)NC(=O)[C@@H](NC(=O)CNC(=O)[C@H](CCC(=O)O)NC(=O)C(C)(C)NC(=O)[C@H](Cc1ccc(O)cc1)NC)[C@@H](C)O)[C@@H](C)CC)C(=O)N[C@@H](C)C(=O)N[C@@H](CC(C)C)C(=O)N[C@@H](CC(=O)O)C(=O)N[C@@H](CCCNC(=N)N)C(=O)NC(C)(C)C(=O)N[C@@H](CCCCNC(=O)COCCOCCNC(=O)COCCOCCNC(=O)CC[C@H](NC(=O)CCCCCCCCCCCCCC(=O)O)C(=O)O)C(=O)N[C@@H](CCC(N)=O)C(=O)NC(C)(C)C(=O)N[C@@H](CC(=O)O)C(=O)N[C@@H](Cc1ccccc1)C(=O)N[C@H](C(=O)N[C@@H](CC(N)=O)C(=O)N[C@@H](Cc1c[nH]c2ccccc12)C(=O)N[C@@H](CC(C)C)C(=O)N[C@@H](CC(C)C)C(=O)N[C@@H](C)C(=O)N[C@@H](CCC(N)=O)C(=O)N[C@@H](CCCNC(=N)N)C(=O)N1CCC[C@H]1C(=O)N[C@@H](CO)C(=O)N[C@@H](CO)C(=O)NCC(=O)N[C@@H](C)C(=O)N1CCC[C@H]1C(=O)N1CCC[C@H]1C(=O)N1CCC[C@H]1C(=O)N[C@@H](CO)C(N)=O)C(C)C
B4: Compound 91 (peptide)
peptide: [NMeY][Aib]EGTFISDYSIALDR[Aib]AQ[Aib]NFVNWLLAQK([AEEA-AEEA-γGlu-γGlu-C15 diacid])-NH2
modifications: N-terminus assumed
SMILES: CC[C@H](C)[C@H](NC(=O)[C@H](CO)NC(=O)[C@H](Cc1ccc(O)cc1)NC(=O)[C@H](CC(=O)O)NC(=O)[C@H](CO)NC(=O)[C@@H](NC(=O)[C@H](Cc1ccccc1)NC(=O)[C@@H](NC(=O)CNC(=O)[C@H](CCC(=O)O)NC(=O)C(C)(C)NC(=O)[C@H](Cc1ccc(O)cc1)NC)[C@@H](C)O)[C@@H](C)CC)C(=O)N[C@@H](C)C(=O)N[C@@H](CC(C)C)C(=O)N[C@@H](CC(=O)O)C(=O)N[C@@H](CCCNC(=N)N)C(=O)NC(C)(C)C(=O)N[C@@H](C)C(=O)N[C@@H](CCC(N)=O)C(=O)NC(C)(C)C(=O)N[C@@H](CC(N)=O)C(=O)N[C@@H](Cc1ccccc1)C(=O)N[C@H](C(=O)N[C@@H](CC(N)=O)C(=O)N[C@@H](Cc1c[nH]c2ccccc12)C(=O)N[C@@H](CC(C)C)C(=O)N[C@@H](CC(C)C)C(=O)N[C@@H](C)C(=O)N[C@@H](CCC(N)=O)C(=O)N[C@@H](CCCCNC(=O)COCCOCCNC(=O)COCCOCCNC(=O)CC[C@H](NC(=O)CC[C@H](NC(=O)CCCCCCCCCCCCCC(=O)O)C(=O)O)C(=O)O)C(N)=O)C(C)C

Columns and labels:
[1] = target: T1, full-length human GIPR with an …; assay: cell-based or functional assay
[2] = target: full-length human GLP-1R with an N-terminal FLAG tag (human, UniProt P43220 24-463); assay: cell-based or functional assay

Binder	Human GIPR cAMP, HEK293T EC50 [1] [nM]	Human GLP1R cAMP HEK293T EC50 [2] [nM]
[NMeY][Aib]EGTFISDYSIALDR[Aib]AQ[Aib]KFVNWLLAQS-NH2 (not fully specified (residue 21)) [Compound 85]	0.0009	63.1
[NMeY]SEGTFISDYSIAK([2OEG-γGlu-C16 diacid])DRIHQ[Aib]NFVNWLLAQK (not fully specified (N-terminus)) [Compound 7]	0.0016	257
[NMeY][Aib]EGTFISDYSIAK([G5-γGlu-γGlu-C15 diacid])DR[Aib]AQ[Aib]NFVNWLLAQSPSSGAPPPS-NH2 [Compound 81]	0.0002	1000
[NMeY][Aib]EGTFISDYSIAKDR[Aib]AQ[Aib]NFVNWLLAQRPSSGAPPPS-NH2 (not fully specified (residue 14)) [Compound 77]	0.0002	331
[NMeY][Aib]EGTFISDYSIAK([G4-γGlu-C15 diacid])DR[Aib]AQ[Aib]NFVNWLLAQSPSSGAPPPS-NH2 [Compound 78]	0.0003	112
B1	0.0005	295
[NMeY][Aib]EGTFISDYSIAK([G5-γGlu-C15 diacid])DR[Aib]AQ[Aib]NFVNWLLAQSPSSGAPPPS-NH2 [Compound 82]	0.0003	295
B2	0.0006	166
B3	0.0011	1000
[NMeY][Aib]EGTFISDYSIALDRIK([AEEA-AEEA-γGlu-C16 diacid])Q[Aib]NFVNWLLAQK [Compound 8]	0.0001	100
[NMeY][Aib]EGTFISDYSIAK([G5-γGlu-C15 diacid])DR[Aib]AQ[Aib]DFVNWLLAQRPSSGAPPPS-NH2 [Compound 80]	0.0004	468
B4	0.0008	126

From patent US20220227830A1, “QD DOSING OF GIP RECEPTOR AGONIST PEPTIDE COMPOUNDS AND USES THEREOF” (Takeda Pharmaceutical Company Limited, priority 2020, published 2022)
